Reference: patent US20070269898A1, “Amino Acid Sequences Essential to Neuron Specific Gene Expression” (YOKOHAMA CITY UNIVERSITY, priority 2004, published 2007)
One block for each molecule: values may come before it. Where no end group is shown, it is not given here.

Legend:
Solubility of peptide = assay type: physicochemical; settings: before adding KKKK to the C-terminus
mSin3B PAH1 domain = target: T1, mSin3B PAH1 domain (Mus musculus, UniProt Q62141); assay: 1H-15N HSQC interaction / titration experiment with 15N-labeled mSin3B PAH1 domain; assay type: binding; settings: for Spectrum (1H-15N HSQC of 15N-mSin3B PAH1 after adding the peptide: complex or single peptide): peptide added to aqueous solution of 15N-labeled mSin3B PAH1
T1 construct: Gly-Ser-His-Met (vector-derived N-terminal residues; general statement only, not tied to the sample used) (N); made in house
T1 sequence (Q62141 28-107): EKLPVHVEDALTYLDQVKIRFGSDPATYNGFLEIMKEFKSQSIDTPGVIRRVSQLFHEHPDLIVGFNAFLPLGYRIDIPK
Protocol: Interaction candidate regions of NRSF/REST (a.a. 43-83, 39-55, 38-57, 64-80 and 68-83) were individually added to an aqueous solution of ^15N-labeled mSin3B PAH1 for measuring ^1H—^15N HSQC to thereby determine a region necessary for the interaction. In order to examine binding ratios, NRSF/REST (a.a. 42-56) at varied concentrations was added to ^15N-labeled mSin3B PAH1 domain in phosphate buffer (pH 6.6), followed by observation of signal changes by ^1H—^15N HSQC. […] Further, in order to carry out quantitative determination of concentrations with UV, a residue having an aromatic ring (W) was also added to the peptide. In a similar manner, the interaction between ^15N-labeled mSin3B PAH1 domain and N—CoR (a.a. 1829-1847) was observed by ^1H-^15N HSQC. For all of the NMR measurement, Bruker Advance 700 was used.
^1H—^15N HSQC spectra were measured when NRSF/REST (a.a. 42-56) was added to 0.1 mM ^15N-labeled mSin3B PAH1 domain at a molar ratio of 1:0, 1:0.5, 1:1 or 1:2. As the concentration of NRSF/REST increased, signals from the single peptide mSin3B disappeared and new signals derived from the mSin3B in complex began to appear. […] No difference was recognized between mSin3B PAH1:NRSF/REST ratios of 1:1 and 1:2. Therefore, it was shown that mSin3B PAH1 domain and NRSF/REST form a complex with 1:1.
^1H—^15N HSQC spectra were measured when N—CoR was added to 0.1 mM ^15N-labeled mSin3B PAH1 domain at a molar ratio of 1:0, 1:0.2, 1:0.4, 1:0.6, 1:0.8, 1:1, 1:2 or 1:3. The positions of signals shifted in a N—CoR concentration dependent manner.

[1] = target: T2, PAH1 domain of mSin3B (a.a. 28-107) (mouse, UniProt O75182 35-114 (human entry)); assay: 1H-15N HSQC NMR, peptide added to 15N-labeled mSin3B PAH1 domain
T2 construct: Expressed in E. coli from pET-28a (NdeI-BamHI) and the His-tag was cut off with thrombin; Used 15N-labeled (or 13C/15N-labeled) in NMR; Stated molecular weight 9585; also called mSin3B PAH1 domain; mSin3B PAH1
T2 sequence: T1 sequence (Q62141 28-107)
Protocol: (§1) Interaction candidate regions of NRSF/REST (a.a. 43-83, 39-55, 38-57, 64-80 and 68-83) were individually added to an aqueous solution of ¹⁵N-labeled mSin3B PAH1 for measuring ¹H—¹⁵N HSQC to thereby determine a region necessary for the interaction. In order to examine binding ratios, NRSF/REST (a.a. 42-56) at varied concentrations was added to ¹⁵N-labeled mSin3B PAH1 domain in phosphate buffer (pH 6.6), followed by observation of signal changes by ¹H—¹⁵N HSQC. Since NRSF/REST (a.a. 42-56) is sparingly soluble, basic residues (KKKK) were added to its C-terminus to improve the solubility. Further, in order to carry out quantitative determination of concentrations with UV, a residue having an aromatic ring (W) was also added to the peptide. […] For all of the NMR measurement, Bruker Advance 700 was used.

[2] = target: T2, PAH1 domain of mSin3B (a.a. 28-107); assay: 1H-15N HSQC titration, 0.1 mM 15N-labeled mSin3B PAH1 at molar ratios 1:0 to 1:3
Protocol: as §1
¹H—¹⁵N HSQC spectra were measured when N—CoR was added to 0.1 mM ¹⁵N-labeled mSin3B PAH1 domain at a molar ratio of 1:0, 1:0.2, 1:0.4, 1:0.6, 1:0.8, 1:1, 1:2 or 1:3. The positions of signals shifted in a N—CoR concentration dependent manner. A rapid exchange process on the NMR timescale was shown.

Molecule: AELAAPQLIMLANVALT (listed as Homo sapiens) [NRSF/REST 39-55, synthetic peptide of NRSF/REST residues 39-55]
Spectrum (1H-15N HSQC of 15N-mSin3B PAH1 after adding the peptide: complex or single peptide) (mSin3B PAH1 domain): Complex

Molecule: APQLIMLANVALTGEVNGSCCDYLVGEERQMAELMPVGDNN (listed as Homo sapiens) [NRSF/REST 43-83, NRSF/REST residues 43-83, expressed as GST fusion in E. coli and cut with thrombin]
Spectrum (1H-15N HSQC of 15N-mSin3B PAH1 after adding the peptide: complex or single peptide) (mSin3B PAH1 domain): Complex

Molecule: DYLVGEERQMAELMPVG (listed as Homo sapiens) [NRSF/REST 64-80, synthetic peptide of NRSF/REST residues 64-80]
Spectrum (1H-15N HSQC of 15N-mSin3B PAH1 after adding the peptide: complex or single peptide) (mSin3B PAH1 domain): Single

Molecule: GEERQMAELMPVGDNN (listed as Homo sapiens) [NRSF/REST 68-83, synthetic peptide of NRSF/REST residues 68-83]
Spectrum (1H-15N HSQC of 15N-mSin3B PAH1 after adding the peptide: complex or single peptide) (mSin3B PAH1 domain): Single

B1: NRSF/REST (a.a. 43-83) (peptide)
peptide: APQLIMLANVALTGEVNGSCCDYLVGEERQMAELMPVGDNN
notes: Recombinant, made as a GST fusion (pGEX-2T, BamHI-EcoRI) and GST was cut off with thrombin; Stated molecular weight 4511; also called NRSF/REST43-83
binding result [1]: binds

B2: NRSF/REST (a.a. 42-56) to which KKKK and W are added to its C-terminus (peptide)
peptide: AAPQLIMLANVALTGKKKKW
notes: Synthetic peptide, molecular weight 2182; also called NRSF/REST42-56
binding result [1]: binds

B3: NRSF/REST (a.a. 68-83) (peptide)
peptide: GEERQMAELMPVGDNN
notes: Synthetic peptide, molecular weight 1790
binding result [1]: no binding

B7: NRSF/REST (a.a. 38-57) (peptide)
peptide: KAELAAPQLIMLANVALTGE
notes: Synthetic peptide, molecular weight 2053; Used for NMR structure analysis of the complex; also called NRSF/REST38-57
binding result [1]: binds

Continued, in another order:

solubility (Solubility of peptide): sparingly soluble
Molecule: AAPQLIMLANVALTGKKKKW [NRSF/REST 42-56]

Spectrum (1H-15N HSQC of 15N-mSin3B PAH1 after adding the peptide: complex or single peptide) (mSin3B PAH1 domain): Complex
Molecule: KAELAAPQLIMLANVALTGE (listed as Homo sapiens) [NRSF/REST 38-57, synthetic peptide of NRSF/REST residues 38-57]

exchange process on the NMR timescale (mSin3B PAH1 domain; titration into 0.1 mM 15N-labeled mSin3B PAH1 domain, 1H-15N HSQC): rapid exchange process
Molecule: N—CoR (a.a. 1829-1847): synthetic peptide of residues 1829-1847 of transcriptional co-repressor N—CoR (RYNTAADALAALVDAAASA; listed as Homo sapiens)
interaction with the PAH1 domain relative to NRSF/REST (mSin3B PAH1 domain; 1H-15N HSQC): interacts with the PAH1 domain, though more weakly than NRSF/REST

binding result [1]: no binding
B4: NRSF/REST (a.a. 64-80) (peptide)
peptide: DYLVGEERQMAELMPVG
notes: Synthetic peptide, molecular weight 1937

binding result [1]: binds
B5: NRSF/REST (a.a. 39-55) (peptide)
peptide: AELAAPQLIMLANVALT
notes: Synthetic peptide, molecular weight 1739; also called NRSF/REST39-55

binding result [2]: binds
B6: N-CoR (a.a. 1829-1847) (peptide)
peptide: RYNTAADALAALVDAAASA
notes: Synthetic peptide, molecular weight 1835; also called co-repressor N-CoR
